The values below come from paper PMC4364741, “Recognition of Neisseria meningitidis by the Long Pentraxin PTX3 and Its Role as an Endogenous Adjuvant” (PLoS ONE, 2015).

The assay concerns the target T1, Biotinylated human PTX3 (bPTX3) (human, UniProt P26022 18-381, biotin (sites not given)).
T1 construct: Long pentraxin 3 (PTX3), human, as m1 but biotinylated; secreted by CHO cells and purified from the supernatant; Same protein as m1 with a biotin label; also called human bPTX3
Description: ELISA; bPTX3 (0.56–17.92 pmol) on triplicate wells coated with 125 pmol/well of antigen; bound PTX3 from a standard curve of bPTX3; nonlinear fitting, one site binding curve; apparent. As to conditions: both partners purified.

T1 sequence (P26022 18-381): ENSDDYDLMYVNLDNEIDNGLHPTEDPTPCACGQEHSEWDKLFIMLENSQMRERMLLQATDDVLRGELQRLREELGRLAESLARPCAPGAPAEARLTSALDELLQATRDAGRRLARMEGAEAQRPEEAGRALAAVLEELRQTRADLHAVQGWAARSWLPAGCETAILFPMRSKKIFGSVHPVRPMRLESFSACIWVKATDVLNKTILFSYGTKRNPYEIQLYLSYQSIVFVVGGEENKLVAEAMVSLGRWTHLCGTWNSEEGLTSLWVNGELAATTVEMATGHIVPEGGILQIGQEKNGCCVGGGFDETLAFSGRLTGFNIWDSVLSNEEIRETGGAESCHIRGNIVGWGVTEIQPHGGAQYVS

B1: Genome-derived Neisserial antigen GNA1030 (natural protein)
chain: ATYKVDEYHANARFAIDHFNTSTNVGGFYGLTGSVEFDQAKRDGKIDITIPIANLQSGSQHFTDHLKSADIFDAAQYPDIRFVSTKFNFNGKKLVSVDGNLTMHGKTAPVKLKAEKFNCYQSPMEKTEVCGGDFSTTIDRTKWGMDYLVNVGMTKSVRIDIQIEAAKQ
B1: the Kd was 37 nM.

B2: Genome-derived Neisserial antigen GNA2091 (natural protein, Neisseria meningitidis, UniProt Q9JXE1 1-202, looked up)
chain: CVSAVIGSAAVGAKSAVDRRTTGAQTDDNVMALRIETTARSYLRQNNQTKGYTPQISVVGYNRHLLLLGQVATEGEKQFVGQIARSEQAAEGVYNYITVASLPRTAGDIAGDTWNTSKVRATLLGISPATQARVKIVTYGNVTYVMGILTPEEQAQITQKVSTTVGVQKVITLYQNYVQR
notes: GNA2091, recombinant surface molecule of Neisseria meningitidis
As for B2, the Kd is 4 nM.
